Measurements taken from US11807689.

molecular target: C1q Receptor in the complement system (rabbit serum complement) (rabbit); assay: cell-based or functional assay

CDC EC50 (Jeko-1 cells, rabbit serum) | Substance
0.353 µg/mL | ARZERRA (ofatumumab) (antibody)
1.21 µg/mL | OCREVUS (ocrelizumab) (antibody)
0.245 µg/mL | RITUXAN (rituximab) (antibody)
